T1: YajC (E. coli, UniProt P0ADZ7 1-110)
T1 construct: YajC of E. coli; also called subunit of SecDF-YajC; subunit of the holo-translocon (HTL)
T1 sequence (looked up): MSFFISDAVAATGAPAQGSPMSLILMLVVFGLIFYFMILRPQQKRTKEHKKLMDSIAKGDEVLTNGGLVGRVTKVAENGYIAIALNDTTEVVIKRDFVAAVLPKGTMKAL

B1: SecY (natural protein, E. coli, UniProt P0AGA2 1-443, looked up)
chain: MAKQPGLDFQSAKGGLGELKRRLLFVIGALIVFRIGSFIPIPGIDAAVLAKLLEQQRGTIIEMFNMFSGGALSRASIFALGIMPYISASIIIQLLTVVHPTLAEIKKEGESGRRKISQYTRYGTLVLAIFQSIGIATGLPNMPGMQGLVINPGFAFYFTAVVSLVTGTMFLMWLGEQITERGIGNGISIIIFAGIVAGLPPAIAHTIEQARQGDLHFLVLLLVAVLVFAVTFFVVFVERGQRRIVVNYAKRQQGRRVYAAQSTHLPLKVNMAGVIPAIFASSIILFPATIASWFGGGTGWNWLTTISLYLQPGQPLYVLLYASAIIFFCFFYTALVFNPRETADNLKKSGAFVPGIRPGEQTAKYIDKVMTRLTLVGALYITFICLIPEFMRDAMKVPFYFGGTSLLIVVVVIMDFMAQVQTLMMSSQYESALKKANLKGYGR
notes: SecY, subunit of the E. coli SecYEG protein-conducting channel; also called subunit of SecYEG; subunit of the holo-translocon (HTL)
B2: SecE (natural protein, E. coli, UniProt P0AG96 1-127, looked up)
chain: MSANTEAQGSGRGLEAMKWVVVVALLLVAIVGNYLYRDIMLPLRALAVVILIAAAGGVALLTTKGKATVAFAREARTEVRKVIWPTRQETLHTTLIVAAVTAVMSLILWGLDGILVRLVSFITGLRF
notes: SecE, subunit of the E. coli SecYEG protein-conducting channel; also called subunit of SecYEG; subunit of the holo-translocon (HTL); not shown: His6, N-terminal, kept
B3: SecG (natural protein, E. coli, UniProt P0AG99 1-110, looked up)
chain: MYEALLVVFLIVAIGLVGLIMLQQGKGADMGASFGAGASATLFGSSGSGNFMTRMTALLATLFFIISLVLGNINSNKTNKGSEWENLSAPAKTEQTQPAAPAKPTSDIPN
notes: SecG, subunit of the E. coli SecYEG protein-conducting channel; also called subunit of SecYEG; subunit of the holo-translocon (HTL)
B4: SecD (natural protein, E. coli, UniProt P0AG90 1-615, looked up)
chain: MLNRYPLWKYVMLIVVIVIGLLYALPNLFGEDPAVQITGARGVAASEQTLIQVQKTLQEEKITAKSVALEEGAILARFDSTDTQLRAREALMGVMGDKYVVALNLAPATPRWLAAIHAEPMKLGLDLRGGVHFLMEVDMDTALGKLQEQNIDSLRSDLREKGIPYTTVRKENNYGLSITFRDAKARDEAIAYLSKRHPDLVISSQGSNQLRAVMSDARLSEAREYAVQQNINILRNRVNQLGVAEPVVQRQGADRIVVELPGIQDTARAKEILGATATLEFRLVNTNVDQAAAASGRVPGDSEVKQTREGQPVVLYKRVILTGDHITDSTSSQDEYNQPQVNISLDSAGGNIMSNFTKDNIGKPMATLFVEYKDSGKKDANGRAVLVKQEEVINIANIQSRLGNSFRITGINNPNEARQLSLLLRAGALIAPIQIVEERTIGPTLGMQNIEQGLEACLAGLLVSILFMIIFYKKFGLIATSALIANLILIVGIMSLLPGATLSMPGIAGIVLTLAVAVDANVLINERIKEELSNGRTVQQAIDEGYRGAFSSIFDANITTLIKVIILYAVGTGAIKGFAITTGIGVATSMFTAIVGTRAIVNLLYGGKRVKKLSI
notes: SecD of E. coli; also called subunit of SecDF; subunit of the holo-translocon (HTL); not shown: His6, C-terminal, kept
B5: SecF (natural protein, E. coli, UniProt P0AG93 1-323, looked up)
chain: MAQEYTVEQLNHGRKVYDFMRWDYWAFGISGLLLIAAIVIMGVRGFNWGLDFTGGTVIEITLEKPAEIDVMRDALQKAGFEEPMLQNFGSSHDIMVRMPPAEGETGGQVLGSQVLKVINESTNQNAAVKRIEFVGPSVGADLAQTGAMALMAALLSILVYVGFRFEWRLAAGVVIALAHDVIITLGILSLFHIEIDLTIVASLMSVIGYSLNDSIVVSDRIRENFRKIRRGTPYEIFNVSLTQTLHRTLITSGTTLMVILMLYLFGGPVLEGFSLTMLIGVSIGTASSIYVASALALKLGMKREHMLQQKVEKEGADQPSILP
notes: SecF of E. coli; also called subunit of SecDF; subunit of the holo-translocon (HTL)
B6: YidC (natural protein, E. coli, UniProt P25714 1-548, looked up)
chain: MDSQRNLLVIALLFVSFMIWQAWEQDKNPQPQAQQTTQTTTTAAGSAADQGVPASGQGKLISVKTDVLDLTINTRGGDVEQALLPAYPKELNSTQPFQLLETSPQFIYQAQSGLTGRDGPDNPANGPRPLYNVEKDAYVLAEGQNELQVPMTYTDAAGNTFTKTFVLKRGDYAVNVNYNVQNAGEKPLEISSFGQLKQSITLPPHLDTGSSNFALHTFRGAAYSTPDEKYEKYKFDTIADNENLNISSKGGWVAMLQQYFATAWIPHNDGTNNFYTANLGNGIAAIGYKSQPVLVQPGQTGAMNSTLWVGPEIQDKMAAVAPHLDLTVDYGWLWFISQPLFKLLKWIHSFVGNWGFSIIIITFIVRGIMYPLTKAQYTSMAKMRMLQPKIQAMRERLGDDKQRISQEMMALYKAEKVNPLGGCFPLLIQMPIFLALYYMLMGSVELRQAPFALWIHDLSAQDPYYILPILMGVTMFFIQKMSPTTVTDPMQQKIMTFMPVIFTVFFLWFPSGLVLYYIVSNLVTIIQQQLIYRGLEKRGLHSREKKKS
notes: YidC of E. coli; also called membrane 'insertase' YidC; subunit of the holo-translocon (HTL); not shown: His6, C-terminal, kept

What follows are binders tested against T1, YajC (assay: SEC + AUC; co-purified detergent-solubilised (DDM) HTL; ultracentrifugation 16 h at 35,000 rpm, 10 °C, absorbance at 280 nm and interference). Details: both partners purified.

Binder | stoichiometry N
B1 | 1
B2 | 1
B3 | 1
B4 | 1
B5 | 1
B6 | 1
